Assay results from PMC10881741, “Structural modifications toward improved lead-203/lead-212 peptide-based image-guided alpha-particle radiopharmaceutical therapies for neuroendocrine tumors” (European Journal of Nuclear Medicine and Molecular Imaging, 2023).
Where two headings read alike, the source gives them in different places.

What was measured:
AR42J cells = assay: Cellular uptake of ^203Pb-labeled peptides; type: cell-based, rat; conditions: 2 h post-incubation
Experimental: PSCTOC and PSC-PEG2-TOC were labeled with ^203Pb and purified via HPLC for high molar activities as descibed in the Supplementary Material and in Li and collaborators. The HPLC-purified ^203Pb-labeled peptides (3.4 kBq) were incubated with AR42J cells in 24-well plates (pre-coated with poly-D-lysine), which were plated at a density of 2.0 × 10^5 cells 2 days prior, in the binding medium at 37 °C for up to 120 min. The cells were then washed twice and lysed, and the radioactivities of the samples were determined (n=3).

[1] = In vivo biodistribution of ^203Pb-labeled peptides; design: species or system mice; conditions: female, athymic nu/nu, mouse, 37 kBq, total radioactivity; for tissue uptake at 1 h / tissue uptake at 3 h / tissue uptake at 24 h: intravenous; for tissue uptake at 1 h / tissue to tissue ratio at 1 h: 1 h post-administration; for tissue uptake at 3 h / tissue to tissue ratio at 3 h: 3 h post-administration; for tissue uptake at 24 h / tissue to tissue ratio at 24 h: 24 h post-administration; for tissue to tissue ratio at 1 h / tissue to tissue ratio at 3 h / tissue to tissue ratio at 24 h: iv
Experimental: AR42J cells (5.0 × 10^6 cells/animal) were implanted subcutaneously on the left shoulder of female athymic nu/nu mice. […] Extra groups of mice were co-administered 37 kBq of ^203Pb-PSC-PEG2-TOC with DL-lysine (400 mg/kg) to determine the effect of amino acid on renal uptake of the radiopharmaceutical. Mice (n=3 per time point) were euthanized at 1, 3, and 24 h post-administration, and tumors and organs/tissues of interest were excised and weighed. The radioactivities of the samples were measured using the gamma counter.

[2] = large intestine, read-out: Large intestine
[3] = small intestine, read-out: Small intestine
[4] = tumor/blood, read-out: Tumor/blood ratio
[5] = tumor/kidneys, read-out: Tumor/kidneys ratio
[6] = tumor/liver, read-out: Tumor/liver ratio
[7] = tumor/lung, read-out: Tumor/lung ratio
[8] = tumor/muscle, read-out: Tumor/muscle ratio

C[C@@H](O)[C@@H]1NC(=O)[C@H](CCCCN)NC(=O)[C@@H](Cc2c[nH]c3ccccc23)NC(=O)[C@H](Cc2ccc(O)cc2)NC(=O)[C@@H](NC(=O)[C@@H](Cc2ccccc2)NC(=O)CN2CCN(CC(=O)O)CCN(CC(N)=O)CCN(CC(=O)O)CC2)CSSC[C@@H](C(=O)N[C@H](CO)[C@@H](C)O)NC1=O [[^203Pb]Pb-PSCTOC, metal not drawn]
Cellular uptake, fold vs. [^203Pb]Pb-DOTATOC (AR42J cells): 6 fold
Cellular uptake (AR42J cells; 37 °C): 5%
tissue uptake at 1 h ([1]; blood, read-out: Blood): 0.53 ± 0.06 %ID/g
tissue uptake at 3 h ([1]; blood, read-out: Blood): 0.03 ± 0.01 %ID/g
tissue uptake at 24 h ([1]; blood, read-out: Blood): 0.01 %ID/g
tissue uptake at 1 h ([1]; brain, read-out: Brain): 0.16 ± 0.16 %ID/g
tissue uptake at 3 h ([1]; brain, read-out: Brain): 0.01 %ID/g
tissue uptake at 24 h ([1]; brain, read-out: Brain): 0.02 %ID/g
tissue uptake at 1 h ([1]; heart, read-out: Heart): 0.32 ± 0.02 %ID/g
tissue uptake at 3 h ([1]; heart, read-out: Heart): 0.07 %ID/g
tissue uptake at 24 h ([1]; heart, read-out: Heart): 0.05 ± 0.01 %ID/g
tissue uptake at 1 h ([1]; kidneys, read-out: Kidneys): 13.6 ± 0.75 %ID/g
tissue uptake at 3 h ([1]; kidneys, read-out: Kidneys): 8.35 ± 1.33 %ID/g
tissue uptake at 24 h ([1]; kidneys, read-out: Kidneys): 5.59 ± 1.3 %ID/g
tissue uptake at 1 h [1, 2]: 0.77 ± 0.04 %ID/g
tissue uptake at 3 h [1, 2]: 3.1 ± 0.12 %ID/g
tissue uptake at 24 h [1, 2]: 0.45 ± 0.03 %ID/g
tissue uptake at 1 h ([1]; liver, read-out: Liver): 0.44 ± 0.02 %ID/g
tissue uptake at 3 h ([1]; liver, read-out: Liver): 0.19 ± 0.03 %ID/g
tissue uptake at 24 h ([1]; liver, read-out: Liver): 0.14 %ID/g
tissue uptake at 1 h ([1]; lung, read-out: Lung): 5.06 ± 0.74 %ID/g
tissue uptake at 3 h ([1]; lung, read-out: Lung): 1.09 ± 0.36 %ID/g
tissue uptake at 24 h ([1]; lung, read-out: Lung): 1.39 ± 0.27 %ID/g
tissue uptake at 1 h ([1]; muscle, read-out: Muscle): 0.25 ± 0.06 %ID/g
tissue uptake at 3 h ([1]; muscle, read-out: Muscle): 0.05 ± 0.03 %ID/g
tissue uptake at 24 h ([1]; muscle, read-out: Muscle): 0.03 ± 0.01 %ID/g
tissue uptake at 1 h [1, 3]: 1.38 ± 0.07 %ID/g
tissue uptake at 3 h [1, 3]: 2.85 ± 2.25 %ID/g
tissue uptake at 24 h [1, 3]: 0.12 ± 0.01 %ID/g
tissue uptake at 1 h ([1]; spleen, read-out: Spleen): 0.7 ± 0.13 %ID/g
tissue uptake at 3 h ([1]; spleen, read-out: Spleen): 0.35 ± 0.12 %ID/g
tissue uptake at 24 h ([1]; spleen, read-out: Spleen): 0.24 ± 0.03 %ID/g
tissue uptake at 1 h ([1]; tumor, read-out: Tumor): 19.1 ± 3.31 %ID/g
tissue uptake at 3 h ([1]; tumor, read-out: Tumor): 16.2 ± 1.76 %ID/g
tissue uptake at 24 h ([1]; tumor, read-out: Tumor): 8.65 ± 0.7 %ID/g
tissue to tissue ratio at 1 h [1, 4]: 36.1
tissue to tissue ratio at 3 h [1, 4]: 540
tissue to tissue ratio at 24 h [1, 4]: 865
tissue to tissue ratio at 1 h [1, 5]: 1.41
tissue to tissue ratio at 3 h [1, 5]: 1.94
tissue to tissue ratio at 24 h [1, 5]: 1.55
tissue to tissue ratio at 1 h [1, 6]: 43.5
tissue to tissue ratio at 3 h [1, 6]: 85.3
tissue to tissue ratio at 24 h [1, 6]: 61.8
tissue to tissue ratio at 1 h [1, 7]: 3.78
tissue to tissue ratio at 3 h [1, 7]: 14.9
tissue to tissue ratio at 24 h [1, 7]: 6.22
tissue to tissue ratio at 1 h [1, 8]: 76.6
tissue to tissue ratio at 3 h [1, 8]: 324
tissue to tissue ratio at 24 h [1, 8]: 288
